# Patent US10130693B2, “Peptides, combination of peptides and scaffolds for use in immunotherapeutic treatment of various cancers” (Immatics Biotechnologies GmbH, priority 2015, dated 2018)
# Biological target: HLA-A*02:01 (Homo sapiens, UniProt P04439, D140Y/D185E/D98H/E176V/E277Q/G131W/G231S/I119V/I121R/I166T/I218V/L300P/L318F/N151K/N90K/P208A/P217A/Q86G/Q94H/R138H/R169H/T345S)
# Assay: MHC binding assay, UV-ligand exchange with beta2m ELISA (exchange yield), HLA-A*02
# Details: binding to HLA-A*02 ranged by peptide exchange yield
# Excerpt: Candidate peptides for T cell based therapies according to the present invention were further tested for their MHC binding capacity (affinity). The individual peptide-MHC complexes were produced by UV-ligand exchange, where a UV-sensitive peptide is cleaved upon UV-irradiation, and exchanged with the peptide of interest as analyzed. Only peptide candidates that can effectively bind and stabilize the peptide-receptive MHC molecules prevent dissociation of the MHC complexes. To determine the yield of the exchange reaction, an ELISA was performed based on the detection of the light chain (β2m) of stabilized MHC complexes. The assay was performed as generally described in Rodenko et al. (Rodenko et al., 2006).
# 96 well MAXISorp plates (NUNC) were coated over night with 2 ug/ml streptavidin in PBS at room temperature, washed 4× and blocked for 1 h at 37° C. in 2% BSA containing blocking buffer. […] Peptide-MHC monomers of the UV-exchange reaction were diluted 100 fold in blocking buffer. Samples were incubated for 1 h at 37° C., washed four times, incubated with 2 ug/ml HRP conjugated anti-β2m for 1h at 37° C., washed again and detected with TMB solution that is stopped with […]. Absorption was measured at 450 nm. Candidate peptides that show a high exchange yield (preferably higher than 50%, most preferred higher than 75%) are generally preferred for a generation and production of antibodies or fragments thereof, and/or T cell receptors or fragments thereof, as they show sufficient avidity to the MHC molecules and prevent dissociation of the MHC complexes.
row,Substance,Peptide exchange (MHC class I binding score)
1,38 (KMQEDLVTL; listed as Homo sapiens) [compound 38],+++ (50%-75% = +++)
2,55 (IASAIVNEL; listed as Homo sapiens) [compound 55],++ (20%-49% = ++)
3,22 (MLSDLTLQL; listed as Homo sapiens) [compound 22],++++ (>=75% = ++++)
4,35 (YVLPKLYVKL; listed as Homo sapiens) [compound 35],++ (20%-49% = ++)
5,16 (HLYNNEEQV; listed as Homo sapiens) [compound 16],++ (20%-49% = ++)
6,52 (ELLSSIFFL; listed as Homo sapiens) [compound 52],+++ (50%-75% = +++)
7,33 (LLLPLLPPLSPSLG; listed as Homo sapiens) [compound 33],+++ (50%-75% = +++)
8,51 (LLLDGDFTL; listed as Homo sapiens) [compound 51],+++ (50%-75% = +++)
9,13 (VLRDNIQGI; listed as Homo sapiens) [compound 13],+++ (50%-75% = +++)
10,54 (FINPKGNWLL; listed as Homo sapiens) [compound 54],+++ (50%-75% = +++)
11,32 (ILADEAFFSV; listed as Homo sapiens) [compound 32],+++ (50%-75% = +++)
12,47 (GLYQAQVNL; listed as Homo sapiens) [compound 47],+++ (50%-75% = +++)
13,5 (SLFGQEVYC; listed as Homo sapiens) [compound 5],+++ (50%-75% = +++)
14,11 (GVLKVFLENV; listed as Homo sapiens) [compound 11],++ (20%-49% = ++)
15,39 (ALMAVVSGL; listed as Homo sapiens) [compound 39],+++ (50%-75% = +++)
16,12 (GLIYEETRGV; listed as Homo sapiens) [compound 12],++ (20%-49% = ++)

row,Substance,Peptide exchange (MHC class I binding score)
1,36 (KLYGIEIEV; listed as Homo sapiens) [compound 36],++++ (>=75% = ++++)
2,42 (VLSPFILTL; listed as Homo sapiens) [compound 42],+++ (50%-75% = +++)
3,6 (FLDPAQRDL; listed as Homo sapiens) [compound 6],+++ (50%-75% = +++)
4,45 (VLGPTPELV; listed as Homo sapiens) [compound 45],+++ (50%-75% = +++)
5,40 (SLLALPQDLQA; listed as Homo sapiens) [compound 40],+++ (50%-75% = +++)
6,31 (ALSDETKNNWEV; listed as Homo sapiens) [compound 31],++++ (>=75% = ++++)
7,24 (FLWNGEDSAL; listed as Homo sapiens) [compound 24],+++ (50%-75% = +++)
8,1 (PLWGKVFYL; listed as Homo sapiens) [compound 1],++ (20%-49% = ++)
9,26 (KVDGVVIQL; listed as Homo sapiens) [compound 26],+++ (50%-75% = +++)
10,28 (TLYSMDLMKV; listed as Homo sapiens) [compound 28],+++ (50%-75% = +++)
11,27 (KVFGDLDQV; listed as Homo sapiens) [compound 27],+++ (50%-75% = +++)
12,20 (ALDGHLYAI; listed as Homo sapiens) [compound 20],+++ (50%-75% = +++)
13,25 (IQADDFRTL; listed as Homo sapiens) [compound 25],++ (20%-49% = ++)
14,49 (LLDESKLTL; listed as Homo sapiens) [compound 49],+++ (50%-75% = +++)
15,48 (TLDHKPVTV; listed as Homo sapiens) [compound 48],++ (20%-49% = ++)

# Results, then the substance that gave them:
row,Peptide exchange (MHC class I binding score),Substance
1,+++ (50%-75% = +++),76 (ILLDESNFNHFL; listed as Homo sapiens) [compound 76]
2,++ (20%-49% = ++),336 (GLMDGSPHFL; listed as Homo sapiens) [compound 336]
3,++++ (>=75% = ++++),324 (AIFDFCPSV; listed as Homo sapiens) [compound 324]
4,+++ (50%-75% = +++),62 (SLFNQEVQI; listed as Homo sapiens) [compound 62]
5,+++ (50%-75% = +++),330 (FLWPKEVEL; listed as Homo sapiens) [compound 330]
6,+++ (50%-75% = +++),337 (KVLGKIEKV; listed as Homo sapiens) [compound 337]
7,+++ (50%-75% = +++),80 (TLDEYLTYL; listed as Homo sapiens) [compound 80]
8,+++ (50%-75% = +++),59 (ALTKILAEL; listed as Homo sapiens) [compound 59]
9,+++ (50%-75% = +++),89 (YLVAHNLLL; listed as Homo sapiens) [compound 89]
10,++++ (>=75% = ++++),79 (SLVPLQILL; listed as Homo sapiens) [compound 79]
11,++ (20%-49% = ++),325 (RLLPKVQEV; listed as Homo sapiens) [compound 325]
12,+++ (50%-75% = +++),93 (SLLTQPIFL; listed as Homo sapiens) [compound 93]
13,++ (20%-49% = ++),61 (HLPDFVKQL; listed as Homo sapiens) [compound 61]
14,+++ (50%-75% = +++),84 (FLEEEITRV; listed as Homo sapiens) [compound 84]
15,+++ (50%-75% = +++),334 (GRADALRVL; listed as Homo sapiens) [compound 334]
16,+++ (50%-75% = +++),65 (KLDGICWQV; listed as Homo sapiens) [compound 65]
17,++ (20%-49% = ++),60 (FLIDTSASM; listed as Homo sapiens) [compound 60]
18,+++ (50%-75% = +++),88 (ILLNTEDLASL; listed as Homo sapiens) [compound 88]
19,+++ (50%-75% = +++),75 (ILDNVKNLL; listed as Homo sapiens) [compound 75]
20,+ (<20% = +),91 (SSLEPQIQPV; listed as Homo sapiens) [compound 91]
21,+ (<20% = +),90 (GAVAEEVLSSI; listed as Homo sapiens) [compound 90]
22,+++ (50%-75% = +++),71 (GLITVDIAL; listed as Homo sapiens) [compound 71]
23,+++ (50%-75% = +++),69 (GIYDGILHSI; listed as Homo sapiens) [compound 69]
24,+++ (50%-75% = +++),66 (FITDFYTTV; listed as Homo sapiens) [compound 66]

# System: HLA-A*24
# Assay: MHC binding assay, UV-ligand exchange with beta2m ELISA (exchange yield), HLA-A*24
# Parameters: species or system human
# Details: binding to HLA-A*24, UV-ligand exchange
# Method in brief: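 Peptide–MHC complexes formed by UV-ligand exchange: a UV-cleavable peptide is replaced by the test peptide, and only binders keep the complex stable. Exchange yield read by streptavidin-capture ELISA on reactions diluted 100-fold, detected with HRP anti-β2m (2 ug/ml, 1 h, 37° C) and TMB at 450 nm.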
row,"Peptide exchange (MHC class I binding score, peptide exchange yield)",Substance
1,++ (20%-49% = ++),226 (MYLKLVQLF; listed as Homo sapiens) [compound 226]
2,+++ (50%-75% = +++),341 (SYLTQHQRI; listed as Homo sapiens) [compound 341]
3,++++ (>=75% = ++++),135 (VYEAMVPLF; listed as Homo sapiens) [compound 135]
4,+++ (50%-75% = +++),165 (EYFTPLLSGQF; listed as Homo sapiens) [compound 165]
5,+++ (50%-75% = +++),178 (NYSSAVQKF; listed as Homo sapiens) [compound 178]
6,+++ (50%-75% = +++),113 (IYSFHTLSF; listed as Homo sapiens) [compound 113]
7,+++ (50%-75% = +++),314 (RYFKGDYSI; listed as Homo sapiens) [compound 314]
8,+++ (50%-75% = +++),370 (RFIGIPNQF; listed as Homo sapiens) [compound 370]
9,+++ (50%-75% = +++),386 (TFSDVEAHF; listed as Homo sapiens) [compound 386]
